The target in series [1] is Asialylated etanercept (etanercept treated with sialidase).
In series [2] the target is T1, TNFαR (the TNFα binding part of etanercept), P20333.
T1 chain: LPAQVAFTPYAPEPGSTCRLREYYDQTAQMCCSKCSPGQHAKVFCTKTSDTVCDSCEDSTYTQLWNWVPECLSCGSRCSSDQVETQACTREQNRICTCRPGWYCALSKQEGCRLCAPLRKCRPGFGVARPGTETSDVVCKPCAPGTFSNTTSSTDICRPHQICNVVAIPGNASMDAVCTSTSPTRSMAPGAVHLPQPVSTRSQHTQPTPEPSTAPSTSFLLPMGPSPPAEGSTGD

Series [3] concerns the target Etanercept (native, fully glycosylated).

B1: LS (O-glycoprotein-specific endoprotease encoded by the Amuc1119 gene of Akkermansia muciniphila, with N-terminal Met and C-terminal GSG-His6) (protein)
chain: MEVTVPDALKDRIALKKTARQLNIVYFLGSDTEPVPDYERRLSELLLYLQQFYGKEMQRHGYGARSFGLDIKSPGRVNIIEYKAKNPAAHYPYENGGGWKAAQELDEFFKAHPDRKKSQHTLIIMPTWNDEKNGPDNPGGVPFYGMGRNCFALDYPAFDIKHLGQKTREGRLLTKWYGGMAHELGHGLNLPHNHQTASDGKKYGTALMGSGNYTFGTSPTFLTPASCALLDACEVFSVTPSQQFYEGKPEVEVGDVAISFKGDQILVSGNYKSPQTVKALNVYIQDPPYAVNQDYDAVSFSRRLGKKSGKFSMKIDKKELEGLNNNEFRISLMFILANGLHMQKHFTFHWDALQDYRDGSKSGSGHHHHHH
Regarding B1, the “hydrolysis and release from double-mutant resin, SDS-PAGE” value in series [1] was “could be hydrolyzed and eluted from the double-mutant-resin by LS in 6 h but had a slightly more complete elution after 24 h”; with Asialylated Abatacept, “could be hydrolyzed and eluted from the double-mutant-resin by LS in 6 h but had a slightly more complete elution after 24 h”. In addition, the “hydrolysis of substrate, SDS-PAGE” value in series [1] is “LS was able to hydrolyze etanercept in the presence of sialidase”; in series [2], “LS had activity in all samples except those treated with O-glycosidase”; in series [3], “full hydrolysis after overnight incubation”.

Values taken from patent US20230212543.
